This test has as its target enolase (AP-MS) (Arabidopsis thaliana) (UniProt P25696).
Chain of UniProt P25696 (P25696 whole entry): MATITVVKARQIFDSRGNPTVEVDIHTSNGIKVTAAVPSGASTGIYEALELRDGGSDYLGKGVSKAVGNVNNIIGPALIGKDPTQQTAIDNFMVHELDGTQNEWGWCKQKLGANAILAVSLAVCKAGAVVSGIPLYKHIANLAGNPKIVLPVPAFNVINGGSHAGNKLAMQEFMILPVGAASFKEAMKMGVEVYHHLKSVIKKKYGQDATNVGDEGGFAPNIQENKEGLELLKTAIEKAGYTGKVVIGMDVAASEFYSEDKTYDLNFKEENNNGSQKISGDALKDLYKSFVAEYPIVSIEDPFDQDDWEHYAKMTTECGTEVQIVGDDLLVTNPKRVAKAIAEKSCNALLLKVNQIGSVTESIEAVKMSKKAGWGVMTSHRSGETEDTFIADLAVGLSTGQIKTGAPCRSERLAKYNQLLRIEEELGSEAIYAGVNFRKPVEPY

“phosphoglycerate mutase 1 (AP-MS) (enzyme)” returned an efficiency (Kcat/KM) of the conversion of 3PGA to pyruvate, NADH-coupled assay: isolated mitochondria (complex) against total extra-plastidial extract (free enzymes) of 19 times.

For the origin of these results see article PMC7481185.
